The results in this text go back to patent US20190352359A1 (IMMATICS BIOTECHNOLOGIES, published 2019).

The first assay addresses T1, HLA-A*24.
T1 construct: Monomers captured on streptavidin plates; also called peptide-receptive MHC molecules; MHC complexes
The assay is described as follows: UV peptide-exchange ELISA (anti-b2m); yield grade ++ = >20%. The text has this:
(§1) Candidate peptides for T cell based therapies according to the present invention were further tested for their MHC binding capacity (affinity). The individual peptide-MHC complexes were produced by UV-ligand exchange, where a UV-sensitive peptide is cleaved upon UV-irradiation, and exchanged with the peptide of interest as analyzed. Only peptide candidates that can effectively bind and stabilize the peptide-receptive MHC molecules prevent dissociation of the MHC complexes. To determine the yield of the exchange reaction, an ELISA was performed based on the detection of the light chain (p2m) of stabilized MHC complexes. The assay was performed as generally described in Rodenko et al. (Rodenko et al., 2006)
(§2) 96 well MAXISorp plates (NUNC) were coated over night with 2 ug/ml streptavidin in PBS at room temperature, washed 4× and blocked for 1 h at 37° C. in 2% BSA containing blocking buffer. Refolded HLA-A*02:01/MLA-001 monomers served as standards, covering the range of 15-500 ng/ml. Peptide-MHC monomers of the UV-exchange reaction were diluted 100-fold in blocking buffer. Samples were incubated for 1 h at 37° C., washed four times, incubated with 2 ug/ml HRP conjugated anti-β2m for 1h at 37° C., washed again and detected with TMB solution that is stopped with […]. Absorption was measured at 450 nm. Candidate peptides that show a high exchange yield (preferably higher than 50%, most preferred higher than 75%) are generally preferred for a generation and production of antibodies or fragments thereof, and/or T cell receptors or fragments thereof, as they show sufficient avidity to the MHC molecules and prevent dissociation of the MHC complexes.
On the technique in general: In an ELISA, binding on a coated surface is turned into a signal by an enzyme label.
WFFQGAQYW (also called WFFQGAQYW) [MMP11-024] displayed a peptide exchange yield of 20 to 50%.
The molecule THSGGTNLF (also called THSGGTNLF) [MMP12-019] gave a peptide exchange yield of 20 to 50%.
As to ASAALTGFTF (also called ASAALTGFTF) [SLC45A3-003], the peptide exchange yield was in the range of 20 to 50%.
On the same count and under the same terms, in the case of EMFFSPQVF (also called EMFFSPQVF) [ACTL8-002] it was 20 to 50%; in that of SHIGVVLAF (also called SHIGVVLAF) [OR51E2-005], 20 to 50%.
Still for that read-out and setting: in the case of GYGLTRVQPF (also called GYGLTRVQPF) [ACTL8-003] it was 20 to 50%; in that of KYMSRVLFVY (also called KYMSRVLFVY) [CHRNA9-002], 20 to 50%.
The same measure, in the same setting: next, VLASAHILQF (also called VLASAHILQF) [BTBD16-005]: 20 to 50%; AQHSLTQLF (also called AQHSLTQLF) [GPC2-002]: 20 to 50%.

The target in the next assay is T1, HLA-A*24. The assay can be described thus: UV peptide-exchange ELISA (anti-b2m); yield grade +++ = >50.
From the text: as §1, §2
With IYIIMQSCW (also called IYIIMQSCW) [FLT3-011], the peptide exchange yield is 50 to 75%.
Same read-out and setting: next, RILTEFELL (also called RILTEFELL) [TRIM31-001]: 50 to 75%; FLPALYSLL (also called FLPALYSLL) [CXCR3-001]: 50 to 75%; QYAAAITNGL (also called QYAAAITNGL) [SALL3-002]: 50 to 75%.
Still for that read-out and setting: in the case of KYKQHFPEI (also called KYKQHFPEI) [MAGEB17-001] it was 50 to 75%.
Still for that read-out and setting: next, LHLYCLNTF (also called LHLYCLNTF) [PGR-003]: 50 to 75%; DIYVTGGHLF (also called DIYVTGGHLF) [KLHDC7B-005]: 50 to 75%.
As to RYKMLIPF (also called RYKMLIPF) [NLRP2-010], the peptide exchange yield was in the range of 50 to 75%.
Still for that read-out and setting: next, MHPGVLAAFLF (also called MHPGVLAAFLF) [MMP13-005]: 50 to 75%; IHGIKFHYF (also called IHGIKFHYF) [NMUR2-004]: 50 to 75%.
On to YIPMSVMLF (also called YIPMSVMLF) [HTR7-002], for which the peptide exchange yield is 50 to 75%.
The same measure, in the same setting: in the case of MDQNQVVWTF (also called MDQNQVVWTF) [ROS-008] it was 50 to 75%.
Still for that read-out and setting: in the case of VCWNPFNNTF (also called VCWNPFNNTF) [RNF183-001] it was 50 to 75%; in that of EAYSYPPATI (also called EAYSYPPATI) [HMCN1-006], 50 to 75%.
Still for that read-out and setting: in the case of VLAPVSGQF (also called VLAPVSGQF) [FCRL5-009] it was 50 to 75%; in that of LFDHGGTVFF (also called LFDHGGTVFF) [ANO7-003], 50 to 75%.
As for KQMQEFFGL (also called KQMQEFFGL) [MMP1-010], the peptide exchange yield lay in the range of 50 to 75%.
The same measure, in the same setting: next, IYFNHRCF (also called IYFNHRCF) [SFMBT1-001]: 50 to 75%; FIPVAWLIF (also called FIPVAWLIF) [MRGPRX4-001]: 50 to 75%.
Same read-out and setting: in the case of ISMSATEFLL (also called ISMSATEFLL) [CYP1A1-001] it was 50 to 75%.
Still for that read-out and setting: next, VYSSFVFNLF (also called VYSSFVFNLF) [NLRP4-007]: 50 to 75%; RYLIIKYPF (also called RYLIIKYPF) [SUCN-003]: 50 to 75%.
KALMSAFYTF (also called KALMSAFYTF) [MMP11-022] gave a peptide exchange yield of 50 to 75%.
On the same count and under the same terms, next, VYSSFVFNL (also called VYSSFVFNL) [NLRP4-006]: 50 to 75%.
Same read-out and setting: in the case of KTKRWLWDF (also called KTKRWLWDF) [COL11A1-004] it was 50 to 75%; in that of NYFLDPVTI (also called NYFLDPVTI) [TRI-005], 50 to 75%.
The same measure, in the same setting: next, MYNMVPFF (also called MYNMVPFF) [DCT-002]: 50 to 75%; YYIGIVEEY (also called YYIGIVEEY) [HEPHL-007]: 50 to 75%; MMVTVVALF (also called MMVTVVALF) [QRFPR-003]: 50 to 75%.
The molecule LSCTATPLF (also called LSCTATPLF) [KHDC1L-001] registered a peptide exchange yield of 50 to 75%.
RSMEHPGKLLF (also called RSMEHPGKLLF) [ESR1-010] showed a peptide exchange yield of 50 to 75%.
Same read-out and setting: in the case of SYLKDPMIV (also called SYLKDPMIV) [DDX53-001] it was 50 to 75%.
Molecule QHMLPFWTDL (also called QHMLPFWTDL) [NLRP2-009] registered a peptide exchange yield of 50 to 75%.
Same read-out and setting: next, IWAERIMF (also called IWAERIMF) [TDRD1-001]: 50 to 75%.
As for YSLLDPAQF (also called YSLLDPAQF) [SOX14-002], the peptide exchange yield lay within 50 to 75%.
Same read-out and setting: in the case of FYPDEDDFYF (also called FYPDEDDFYF) [MYCN-002] it was 50 to 75%; in that of EYSLPVLTF (also called EYSLPVLTF) [PTP-037], 50 to 75%.
On the same count and under the same terms, in the case of KYYIATMAL (also called KYYIATMAL) [CHRNA9-003] it was 50 to 75%; in that of GYFLAQYLM (also called GYFLAQYLM) [TRPM8-008], 50 to 75%.
Still for that read-out and setting: next, MSYSCGLPSL (also called MSYSCGLPSL) [KRT33A-001]: 50 to 75%.
